Laboratory results taken from the supplement of paper PMC10567573.

B1: TOR1AIP2 (parent)
chain: AGQEGEDTLRRRLLAPEAGSHPQQ
B2: ZNF649 (parent)
chain: MTKAQESLTLEDVAVDFTWEEWQF

Variants of: B1
Assay: protein stability index of a GFP-peptide fusion (GPS, HEK-293T) (PSI 1-6); higher = more stable
Details: c terminus: a fixed tail appended
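Note: lentivirally expressed fusions sorted by FACS into six bins by GFP to DsRed ratio, PSI derived from sequencing read proportions per bin multiplied by bin number.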

Variant | protein stability index
AGQEGEDTLRRRLLAPEWGSHPQQ [A18W] | 2.21
AGQEGEDTLRRRLLAPEHGSHPQQ [A18H] | 3.03
AGQEGEDTLRRRLLAPEKGSHPQQ [A18K] | 3.5
AGQEGEDTLRRRLLAPENGSHPQQ [A18N] | 4.09
AGQEGEDTLRRRLLAPEMGSHPQQ [A18M] | 2.08
AGQEGEDTLRRRLLAPESGSHPQQ [A18S] | 2.35
AGQEGEDTLRRRLLAPECGSHPQQ [A18C] | 2.48
AGQEGEDTLRRRLLAPEPGSHPQQ [A18P] | 4.77
AGQEGEDTLRRRLLAPEQGSHPQQ [A18Q] | 3.35
AGQEGEDTLRRRLLAPELGSHPQQ [A18L] | 1.57
AGQEGEDTLRRRLLAPEEGSHPQQ [A18E] | 3.46
AGQEGEDTLRRRLLAPEFGSHPQQ [A18F] | 2.16
AGQEGEDTLRRRLLAPEYGSHPQQ [A18Y] | 1.43
AGQEGEDTLRRRLLAPERGSHPQQ [A18R] | 2.87
AGQEGEDTLRRRLLAPEDGSHPQQ [A18D] | 3.62
AGQEGEDTLRRRLLAPEIGSHPQQ [A18I] | 1.9
AGQEGEDTLRRRLLAPEAGVHPQQ [S20V] | 1.73
AGQEGEDTLRRRLLAPEAGYHPQQ [S20Y] | 2.18
AGQEGEDTLRRRLLAPEAGLHPQQ [S20L] | 2.09
AGQEGEDTLRRRLLAPEAGFHPQQ [S20F] | 1.73
AGQEGEDTLRRRLLAPEAGAHPQQ [S20A] | 2.45
AGQEGEDTLRRRLLAPEAGCHPQQ [S20C] | 1.62
AGQEGEDTLRRRLLAPEAGTHPQQ [S20T] | 2.1
AGQEGEDTLRRRLLAPEAGWHPQQ [S20W] | 2.08
AGQEGEDTLRRRLLAPEAGMHPQQ [S20M] | 2.68
AGQEGEDTLRRRLLAPEAGEHPQQ [S20E] | 2.91

Variant | protein stability index
AGQEGEDTLRRRLLAPEAGKHPQQ [S20K] | 1.97
AGQEGEDTLRRRLLAPEAGPHPQQ [S20P] | 2.53
AGQEGEDTLRRRLLAPEAGRHPQQ [S20R] | 2.28
AGQEGEDTLRRRLLAPEAGQHPQQ [S20Q] | 2.35
AGQEGEDTLRRRLLAPEAGNHPQQ [S20N] | 2.02
AGQEGEDTLRRRLLAPEAGDHPQQ [S20D] | 3.33
AGQEGEDTLRRRLLAPEAGIHPQQ [S20I] | 2.08
AGQEGEDTLRRRLLAPEAGHHPQQ [S20H] | 2.1
AGQEGEDTLRRRLLAPEAGGHPQQ [S20G] | 2.25
AGQEGEDTLRRRLLAPEAGSHPQS [Q24S] | 2.4
AGQEGEDTLRRRLLAPEAGSHPQC [Q24C] | 1.85
AGQEGEDTLRRRLLAPEAGSHPQD [Q24D] | 2.38
AGQEGEDTLRRRLLAPEAGSHPQM [Q24M] | 2.81
AGQEGEDTLRRRLLAPEAGSHPQV [Q24V] | 2.58
AGQEGEDTLRRRLLAPEAGSHPQN [Q24N] | 2.25
AGQEGEDTLRRRLLAPEAGSHPQH [Q24H] | 1.7
AGQEGEDTLRRRLLAPEAGSHPQL [Q24L] | 1.79
AGQEGEDTLRRRLLAPEAGSHPQW [Q24W] | 2.17
AGQEGEDTLRRRLLAPEAGSHPQT [Q24T] | 2.22
AGQEGEDTLRRRLLAPEAGSHPQF [Q24F] | 2.37
AGQEGEDTLRRRLLAPEAGSHPQY [Q24Y] | 2.46
AGQEGEDTLRRRLLAPEAGSHPQR [Q24R] | 2.05
AGQEGEDTLRRRLLAPEAGSHPQE [Q24E] | 2.52
AGQEGEDTLRRRLLAPEAGSHPQI [Q24I] | 2.16
AGQEGEDTLRRRLLAPEAGSHPQP [Q24P] | 2.41

Variants of: B2
Assay: as above
Details: c terminus: a fixed tail appended

Variant | protein stability index
MTIAQESLTLEDVAVDFTWEEWQF [K3I] | 2.74
MTHAQESLTLEDVAVDFTWEEWQF [K3H] | 3.7
MTCAQESLTLEDVAVDFTWEEWQF [K3C] | 2.23
MTLAQESLTLEDVAVDFTWEEWQF [K3L] | 2.84
MTFAQESLTLEDVAVDFTWEEWQF [K3F] | 2.17
MTGAQESLTLEDVAVDFTWEEWQF [K3G] | 3.36
MTDAQESLTLEDVAVDFTWEEWQF [K3D] | 3.63
MTEAQESLTLEDVAVDFTWEEWQF [K3E] | 4.29
MKKAQESLTLEDVAVDFTWEEWQF [T2K] | 3.77
MPKAQESLTLEDVAVDFTWEEWQF [T2P] | 3.66
MEKAQESLTLEDVAVDFTWEEWQF [T2E] | 3.94
MAKAQESLTLEDVAVDFTWEEWQF [T2A] | 3.09
MLKAQESLTLEDVAVDFTWEEWQF [T2L] | 3.97
MRKAQESLTLEDVAVDFTWEEWQF [T2R] | 2.72
MFKAQESLTLEDVAVDFTWEEWQF [T2F] | 2.66
MNKAQESLTLEDVAVDFTWEEWQF [T2N] | 3.62
MYKAQESLTLEDVAVDFTWEEWQF [T2Y] | 2.33
MVKAQESLTLEDVAVDFTWEEWQF [T2V] | 2.64
MIKAQESLTLEDVAVDFTWEEWQF [T2I] | 2.75
MWKAQESLTLEDVAVDFTWEEWQF [T2W] | 2.36
MSKAQESLTLEDVAVDFTWEEWQF [T2S] | 2.55
MGKAQESLTLEDVAVDFTWEEWQF [T2G] | 3.25

Variant | protein stability index
MDKAQESLTLEDVAVDFTWEEWQF [T2D] | 3.5
MHKAQESLTLEDVAVDFTWEEWQF [T2H] | 2.88
MCKAQESLTLEDVAVDFTWEEWQF [T2C] | 2.57
NTKAQESLTLEDVAVDFTWEEWQF [M1N] | 4.67
PTKAQESLTLEDVAVDFTWEEWQF [M1P] | 2.81
HTKAQESLTLEDVAVDFTWEEWQF [M1H] | 3.72
QTKAQESLTLEDVAVDFTWEEWQF [M1Q] | 3.89
YTKAQESLTLEDVAVDFTWEEWQF [M1Y] | 2.96
CTKAQESLTLEDVAVDFTWEEWQF [M1C] | 2.82
KTKAQESLTLEDVAVDFTWEEWQF [M1K] | 3.29
ITKAQESLTLEDVAVDFTWEEWQF [M1I] | 2.83
FTKAQESLTLEDVAVDFTWEEWQF [M1F] | 2.69
ATKAQESLTLEDVAVDFTWEEWQF [M1A] | 3.33
LTKAQESLTLEDVAVDFTWEEWQF [M1L] | 2.94
WTKAQESLTLEDVAVDFTWEEWQF [M1W] | 2.07
DTKAQESLTLEDVAVDFTWEEWQF [M1D] | 3.95
GTKAQESLTLEDVAVDFTWEEWQF [M1G] | 3.43
STKAQESLTLEDVAVDFTWEEWQF [M1S] | 3.91
TTKAQESLTLEDVAVDFTWEEWQF [M1T] | 3.79
VTKAQESLTLEDVAVDFTWEEWQF [M1V] | 3.07
ETKAQESLTLEDVAVDFTWEEWQF [M1E] | 4.48
